According to patent publication US20150141617A1, “PRODUCTION AND PURIFICATION OF ACTIVE EUKARYOTIC FORMYLGLYCINEGENERATING ENZYME (FGE) VARIANTS” (Universität Bielefeld, priority 2013, published 2015):

What was measured:
[1] = biological target: FGE-HA (human formylglycine generating enzyme, wild type, C-terminal HA tag, expressed from pBI-FGE-HA in mammalian cells) (human) (UniProt Q8NBK3); assay: cell-based or functional assay
[2] = biological target: T1, 23 amino acid substrate peptide Ac-MTDFYVPVSLCTPSRAALLTGRS-NH2 (SEQ ID NO: 46)
T1 chain: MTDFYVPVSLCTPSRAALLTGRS

[3] = tested on: cysteine-containing substrate peptide; assay: In vitro FGE activity assay with conditioned media from CHO-FD11 cells; type: biochemical; conditions: 5 mM GSH vs 2 mM DTT, pH 9.3, conditioned media
Method: FGE activity was assayed using conditioned media that contained either secreted fl-FGE (obtained from CHO-FD FGE-His6 cells) or Δ72-FGE (obtained from CHO-FD Tet-On cells after transient co-transfection with pBI-FGE-HA and pIRES-Furin constructs). After expression for 48 h at 1% or 2.5% FCS containing DMEM, the medium was collected and centrifuged at 500×g for 5 min. The supernatant was analyzed by SDS-PAGE and western blotting and aliquots were directly used for activity testing.
The activity assay was performed in triplicates with three sets of conditioned media at pH 9.3 under standard conditions as described earlier (4) with some modifications; no BSA was added to the reaction mixture and 2 mM DTT or 5 mM GSH were used as reducing agents.
The inventors have recently shown that the N-terminal part of FGE (residues 34-68) is essential to activate sulfatases in vivo (12). By contrast, the N-terminal extension was not required for in vitro FGly-generating activity of purified secreted Δ72-FGE. […] To assess the physiological consequence of the N-terminal truncation by furin on the function of FGE, the inventors analyzed the FGly-generating activity of the processed and the unprocessed forms of secreted FGE in the presence of glutathione (GSH), a physiological reductant, or DTT serving as a control. […]

[4] = Stability of purified recombinant FGE upon storage (SDS-PAGE, Coomassie staining or western blotting); type: physicochemical
Method: Purified enzymes are preferably stored frozen at −20° C. or −80° C., but it is known that the freeze-thaw cycle can lead to a decrease in the stability of proteins and/or accompanied loss of enzymatic activity. To minimize this effect, it is common to add stabilizing agents to preserve the stability and functionality of proteins during long-term storage. Analyses of conditions that affect the stability of purified recombinant fl-FGE-R69A/R72A and Δ72-FGE-wt were performed. The stability was assessed by analyzing the purified protein by SDS-PAGE and subsequently visualized by Coomassie staining or western blotting using FGE anti-serum as described above.
Generation of truncated FGE was increasingly detected upon removing the imidazole by size exclusion chromatography (Panel SEC, FIG. 17A). To gain further insights, aliquots of the purified fraction from size exclusion chromatography were incubated at 4° C. for either 3.5 h or 20 h in the presence of various additives like NaCl, imidazole, arginine and glycerol and later assessed by western blot using FGE anti-serum.

[5] = tested on: 23-aa long substrate peptide Ac-MTDFYVPVSLCTPSRAALLTGRS-NH2; assay: In vitro FGE activity assay (MALDI-ToF MS) with purified recombinant FGE from insect cells; type: biochemical; conditions: for pH of maximal activity: MTGC buffer pH 6.5-11.0; for FGly generation in substrate peptide in presence of DTT: pH 9.3, 37° C.; for dependence of activity on reducing agent (DTT or GSH): in vitro; for specific activity: purified from Baculovirus expression system (Example 7); for DTT concentration of maximal activity: 0-15 mM DTT, pH 9.3, 15 min 37° C.
Method: a) fl-FGE-R69A/R72A (SEQ ID NO: 4) is active and e.g. generates FGly within a 23-aa long substrate peptide 16 pmol of the 23 amino acid (aa) long peptide Ac-[…]-NH2 (SEQ ID NO:46) were incubated with 12 ng of fl-FGE-R69A/R72A for 20 min at 37° C. under assay conditions (50 mM Tris, 67 mM NaCl, 15 μM CaCl2, 0.33 mg/mL BSA, 2 mM DTT, pH 9.3 in a total volume of 30 μL).
The reaction was stopped by adding 3 μL of 20% trifluoroacetic-acid (TFA), immediately followed by vortexing and by a short centrifugation at 10000×g. The peptide was purified and concentrated by C18-Zip-Tip treatment. Therefore the Zip-Tip was prepared by pipetting three times 10 μL of 50% acetonitrile, 0.05% TFA in water and three times 10 μL 0.1% TFA in water. The 33 μL sample was pipetted 10 times up and down. The bound peptide was washed by pipetting 10 times 10 μL 0.1% TFA in water and was eluted in 10 μL 50% acetonitrile, 0.05% TFA in water by pipetting 10 times up and down. For MS-analysis the following matrix was prepared freshly: 40 μL of a saturated α-cyano-hydroxycinnamic acid solution in aceton were added to 10 μL of a solution containing 10 mg/mL nitrocellulose in 50% Aceton/50% Isopropanol (v/v). 0.5 μL of the matrix were spotted onto a polished steel target and 1 μL of the purified sample was added. The dried sample spot was analyzed by MALDI-ToF mass spectrometry using the Ultra flextreme spectrometer from Bruker Daltronics. The cysteine containing substrate peptide (2526.28 [M+H]^+) and the FGly containing product peptide (2508.29 [M+H]^+) were detected.
b) fl-FGE-R69A/R72A (SEQ ID NO:4) is able to generate FGly by using GSH as reductant:10 times stock solutions of DTT and GSH were prepared in 20 mM Tris pH 9.3. For the reaction, 13 ng of Baculo-fl-FGE were incubated with 16 pmol of the 23 aa-long substrate peptide, 2 mM DTT or 5 mM reduced glutathione for 15 min at 37° C. under assay conditions (50 mM Tris, 67 mM NaCl, 15 μM CaCl2, 0.33 mg/mL BSA, pH 9.3 in a total volume of 30 μL). The reactions were stopped and prepared further for MS-analysis as described above. The ratio of the intensity of the FGly-product peptide divided by the sum of the substrate and product intensities multiplied with 100 yields %-turnover of the substrate peptide. Based on that, specific activities were calculated.
The dependence of FGly-generating activity of recombinant fl-FGE-R69A/R72A on the reducing agents DTT and GSH were analyzed at pH 9.3 under standard assay conditions (FGE and substrate peptide were incubated at 37° C. in 50 mM Tris/HCl, 67 mM NaCl, and 0.33 mg/ml BSA in 30 μl volume. The reaction was started by addition of substrate) using a MALDI-mass spectrometry based in vitro activity assay (Ennemann et al., 2013 and FIG. 7).
The pH-dependence for in vitro activity of recombinant fl-FGE-R69A/R72A and Δ72-FGE-wt was analyzed under optimal DTT and GSH concentrations. Accordingly, the activity of recombinant fl-FGE-R69A/R72A in the presence of 2 mM DTT, under standard assay conditions, was measured in buffers of pH ranging from pH 6.5 to 11.0 (FIG. 19A). […] In the presence of 5 mM GSH, the maximal activity was also observed at pH 9.3 and a very similar activity profile ranging from pH 7.5 to 11 (FIG. 19B). […] In summary, fl-FGE-R69A/R72A requires less alkaline conditions for optimum activity than Δ72-FGE-wt.

human furin (Gene ID 5045), expressed from a pIRES construct in CHO-FD11 cells (from UniProt P09958 108-794)
share of Δ72-FGE in secretions of CHO-FD11 Tet-On cells co-expressing FGE and the PC (western blot) [1]: 100%

B1: Δ72-FGE (SEQ ID NO: 6), produced in High Five insect cells (protein)
chain: ADLGSSMEFEANAPGPVPGERQLAHSKMVPIPAGVFTMGTDDPQIKQDGEAPARRVTIDAFYMDAYEVSNTEFEKFVNSTGYLTEAEKFGDSFVFEGMLSEQVKTNIQQAVAAAPWWLPVKGANWRHPEGPDSTILHRPDHPVLHVSWNDAVAYCTWAGKRLPTEAEWEYSCRGGLHNRLFPWGNKLQPKGQHYANIWQGEFPVTNTGEDGFQGTAPVDAFPPNGYGLYNIVGNAWEWTSDWWTVHHSVEETLNPKGPPSGKDRVKKGGSYMCHRSYCYRYRCAARSQNTPDSSASNLGFRCAADRLPTMDSGRGSHHHHHHH
conversion of the Cys substrate peptide to the FGly product peptide (MALDI-ToF MS), DTT as reductant [2]: The Δ72-FGE (SEQ ID NO: 6) variant also converts the cysteine-containing substrate peptide to the FGly-containing product peptide in presence of the reductant DTT

B2: Δ72-FGE: human FGE that lacks the N-terminal domain (amino acid residues 1-72), SEQ ID NO:6 (protein)
chain: B1 chain
modifications: cleaved FGE in position 72 , inacitve FGE
FGly-generating activity (% substrate turnover) in the presence of GSH normalized to that of DTT (100%) [3]: barely active in the presence of GSH
molecular integrity after storage ([4]; thawing from −80° C. and short-term storage at 4° C.): did not lead to any change in the molecular integrity
pH of maximal activity ([5]; 2 mM DTT): ~10
FGly generation in substrate peptide in presence of DTT ([5]; 2 mM DTT): converts the cysteine-containing substrate peptide to the FGly-containing product peptide
dependence of activity on reducing agent (DTT or GSH) ([5]; pH 9.3): strictly relies on DTT
specific activity [5]: 70-90 mU/mg

B3: dimeric FGE: disulfide-bridged dimeric form of recombinant fl-FGE-R69A/R72A separated by size exclusion chromatography (protein)
chain: ADEFSQEAGTGAGAGSLAGSCGCGTPQRPGAHGSSAAAHAYSAEANAPGPVPGERQLAHSKMVPIPAGVFTMGTDDPQIKQDGEAPARRVTIDAFYMDAYEVSNTEFEKFVNSTGYLTEAEKFGDSFVFEGMLSEQVKTNIQQAVAAAPWWLPVKGANWRHPEGPDSTILHRPDHPVLHVSWNDAVAYCTWAGKRLPTEAEWEYSCRGGLHNRLFPWGNKLQPKGQHYANIWQGEFPVTNTGEDGFQGTAPVDAFPPNGYGLYNIVGNAWEWTSDWWTVHHSVEETLNPKGPPSGKDRVKKGGSYMCHRSYCYRYRCAARSQNTPDSSASNLGFRCAADRLPTMDSGRGSHHHHHHH
stability of dimeric vs monomeric form [4]: more stable than monomeric fl FGE forms
DTT concentration of maximal activity [5]: 0.1 to 1 mM
DTT concentration for optimal activity under in vitro conditions ([5]; pH 9.3): 0.1 to 2 mM

B4: fl-FGE-R69A/R72A: human full length FGE variant, Arginine-69 and Arginine-72 converted to Alanine, non-cleavable furin motif, SEQ ID NO:4 (protein)
chain: B3 chain
modifications: double fl FGE variant R69A / R72A
stability with added imidazole ([4]; 250 mM imidazole, one freeze-thaw cycle, two weeks at −80° C.): more stable
truncated fragment (~37 kDa) of the total protein after thawing ([4]; Ni-NTA fractions containing 250-500 mM imidazole, long-term storage −80° C.): less than 5%
stability after long-term storage ([4]; Ni-NTA fractions containing 250-500 mM imidazole, −80° C.): highly stable
truncation on prolonged incubation ([4]; SEC fraction (imidazole removed), 4° C., 3.5 h or 20 h): led to generation of truncated fragments
truncation on incubation with additive ([4]; SEC fraction, 4° C., 250 mM imidazole or 850 mM NaCl): prevented further increase of FGE truncation
specific activity in presence of the control reductant DTT ([5]; 2 mM DTT, 15 min 37° C., pH 9.3, 4 measurements): 24.1±1.7 mU/mg
pH of maximal activity ([5]; 2 mM DTT): 9.3
FGly generation in substrate peptide in presence of DTT ([5]; 2 mM DTT): is active
pH of maximal activity ([5]; 5 mM GSH): 9.3
specific activity in presence of GSH ([5]; 5 mM reduced glutathione, 15 min 37° C., pH 9.3, 4 measurements): 15.6±1.3 mU/mg
FGly generation using GSH as reductant ([5]; 5 mM reduced glutathione, pH 9.3): active in presence of GSH
dependence of activity on reducing agent (DTT or GSH) ([5]; pH 9.3): fully functional in the presence of either DTT or glutathione (GSH)
activity in the absence of externally added reducing agents ([5]; pH 9.3): very low activity
specific activity [5]: 33 mU/mg

B5: monomeric FGE (protein)
chain: B3 chain
DTT concentration of maximal activity [5]: 2 mM
DTT concentration for optimal activity under in vitro conditions ([5]; pH 9.3): 1 to 10 mM
